Target: T1, 重组PSMA蛋白 (human, UniProt Q04609 44-750)
T1 construct: also called 人PSMA蛋白; 人PSMA重组蛋白
Test: SPR (Biacore); recombinant PSMA immobilised on CM5 chip, J591 as analyte at 0.125-4.0 μg/mL

T1 sequence (Q04609 44-750 limits assumed): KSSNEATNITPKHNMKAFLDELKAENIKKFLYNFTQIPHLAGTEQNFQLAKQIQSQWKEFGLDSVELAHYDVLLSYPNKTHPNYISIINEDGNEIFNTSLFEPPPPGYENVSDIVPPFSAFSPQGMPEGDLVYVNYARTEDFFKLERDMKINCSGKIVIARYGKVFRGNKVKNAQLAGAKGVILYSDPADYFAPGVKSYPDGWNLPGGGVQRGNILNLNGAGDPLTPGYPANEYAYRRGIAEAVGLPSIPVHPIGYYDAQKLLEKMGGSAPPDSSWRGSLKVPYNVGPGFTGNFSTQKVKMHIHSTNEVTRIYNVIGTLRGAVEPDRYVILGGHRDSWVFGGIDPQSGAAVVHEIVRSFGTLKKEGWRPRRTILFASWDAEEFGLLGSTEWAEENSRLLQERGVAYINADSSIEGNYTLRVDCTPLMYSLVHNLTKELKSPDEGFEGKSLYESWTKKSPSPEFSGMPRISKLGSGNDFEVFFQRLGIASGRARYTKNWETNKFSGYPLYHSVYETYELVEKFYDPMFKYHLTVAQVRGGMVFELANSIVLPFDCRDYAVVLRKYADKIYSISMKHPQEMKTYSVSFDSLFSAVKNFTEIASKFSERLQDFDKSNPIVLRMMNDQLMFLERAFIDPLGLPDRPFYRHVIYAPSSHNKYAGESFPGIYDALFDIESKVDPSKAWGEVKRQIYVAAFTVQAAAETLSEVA

B1: 人源化单抗J591 (antibody, V domains shown)
VH: EVQLQQSGPELKKPGTSVRISCKTSGYTFTEYTIHWVKQSHGKSLEWIGNINPNNGGTTYNQKFEDKATLTVDKSSSTAYMELRSLTSEDSAVYYCAAGWNFDYWGQGTTLTVSS
VL: DIVMTQSHKFMSTSVGDRVSIICKASQDVGTAVDWYQQKPGQSPKLLIYWASTRHTGVPDRFTGSGSGTDFTLTITNVQSEDLADYFCQQYNSYPLTFGAGTMLDLK
notes: Expressed from pcDNA3.0 in suspension host cells and purified on Protein A; also called 人源化抗体J591; J591单抗
B1 was tested, and the Kd was 1.61 nM.

Reference: CN116370651A (SHANGHAI YUANZHI BIO TECH CO LTD, dated 2023)
